Assay [1] has as its target T1, human TF ECD-His (hTF-his) (human, UniProt P13726 33-251).
T1 construct: also called bio-hTF-his; human TF-His protein
As to the kind of experiment: SPR Biacore T200, antibody on Protein A chip, TF-His as analyte, 1:1 model. (In general: SPR reads the build-up and loss of mass on a sensor chip optically.)

The target of assay [2] is T2, cyno TF ECD-His (cTF-his) (monkey (cyno)).
T2 construct: also called bio-cTF-his; monkey TF-His protein
T2 chain: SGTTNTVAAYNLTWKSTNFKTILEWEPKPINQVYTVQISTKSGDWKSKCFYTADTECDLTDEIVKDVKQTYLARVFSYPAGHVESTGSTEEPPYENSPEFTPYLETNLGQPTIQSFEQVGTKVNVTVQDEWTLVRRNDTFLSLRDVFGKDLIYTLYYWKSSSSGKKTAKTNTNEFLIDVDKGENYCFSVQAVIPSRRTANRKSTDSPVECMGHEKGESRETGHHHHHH
The assay is described as above.

For assay [3], the target named is T3, human tissue factor (TF) on MDA-MB-231, NCI-H358 and HCT116 cells (human, UniProt P13726 33-295).
T3 construct: whole, on cells; also called TF antigen; CD142
As to the kind of experiment: flow cytometry on MDA-MB-231 cells. In general terms: In flow cytometry, cells or beads pass a laser one at a time.

Assay [4] has as its target T3, human tissue factor (TF) on MDA-MB-231, …. As to the kind of experiment: flow cytometry on H358 cells.

Where a chain is given by its changes, count along the chain named.

B1: hu67-11 (antibody, human IgG1, kappa, V domains shown)
VH: EVQLQESGPGLVKPSQTLSLTCTVSGFSLTNYGVNWIRQPPGKGLEWIGVIWSRGNTDYNAAFISRVTISKDTSKNQVSLKLSSVTAADTAVYYCARKDAVVATDALDYWGQGTTVTVSS
VL: DIQMTQSPSSLSASVGDRVTITCKASQDVSTAVAWYQQKPGKAPKLLIYSTSYRYTGVPSRFSGSGSGTDFTFTISSLQPEDIATYYCQQHYSTPYTFGGGTKVEIKR
With B1, in assay [1], the Kd (commonly the concentration at which binding is half-saturated) stood at 16.5 nM; the koff (as a rule, the rate constant with which the complex falls apart) worked out at 0.000675 s⁻¹; the kon – broadly, a measure of how fast the partners come together – amounted to 40900 M⁻¹ s⁻¹. In assay [2], this molecule returned an equilibrium dissociation constant (Kd) of 8.95 nM, a koff of 0.000243 s⁻¹ and a kon of 27100 M⁻¹ s⁻¹. Moreover, the response in assay [3] was half-maximal at 26.3 nM (EC50).

B2: hu67-10 (antibody, human IgG1, kappa, V domains shown)
VH: EVTLKQSGPVLVKPTQTLTLTCTVSGFSLTNYGVNWIRQPPRKGLEWLGVIWSRGNTDYNAAFISRLTISKDNSKSQVVLKMTNMDPVDTATYYCARKDAVVATDALDYWGQGTTVTVSS
VL: B1 VL
B2: in assay [1], the dissociation constant Kd is 15.2 nM, the koff is 0.000594 s⁻¹ and the on-rate (kon) was 39200 M⁻¹ s⁻¹. In assay [2], this molecule displayed a dissociation constant (Kd) of 8.9 nM, an off-rate constant (koff) of 0.000356 s⁻¹ and an on-rate (kon) of 40000 M⁻¹ s⁻¹.

B3: hu67-13 (antibody, human IgG1, kappa, V domains shown)
VH: B2 VH with G44A, G49A, N73T
VL: B1 VL with P8H, S9K, S10F, A43S
As to B3, in assay [1], the Kd amounted to 19 nM, the koff was determined as 0.000577 s⁻¹ and the kon is 30400 M⁻¹ s⁻¹. In assay [2], this molecule showed a dissociation constant Kd of 10.9 nM, an off-rate constant (koff) of 0.000344 s⁻¹ and a kon of 31500 M⁻¹ s⁻¹.

B4: hu67Y118 (antibody, human IgG1, kappa, V domains shown)
VH: B1 VH with P40S, I64K, V101I
VL: B1 VL with S30Q, S52H, Q89L, H91L, Y92I, S93G, T94V, Y96H
With B4, in assay [3], the EC50 – broadly, the concentration needed to bring the measured effect to its halfway point – is 7.05 nM.

B5: hu10H10-33 (antibody, V domains shown)
VH: EVQLVQSGSELKKPGASVKVSCKASGYTFITYWIEWVKQRPGQGLEWMGDILPGSGSTNYNENFKGRATFSADTSVSTAYLQISSLKAEDTAVYYCARSGYYGNSGFAYWGQGTLVTVSS
VL: DIQMTQSPSSLSASVGDRVTITCKSSQSLLSSGNQKNYLTWYQQKPGKAPKLLIYWASTREEGVPSRFSGSGSGTDFTLTISSLQPEDFATYYCQNDYTYPLTFGQGTKLEIK
notes: H7+L3; Full-length IgG
As to B5, the half-maximal effective concentration (EC50) in assay [3] came to 1.09 nM; in assay [4], 0.96 nM.

B6: hu10H10-19 (antibody, V domains shown)
VH: EVQLVQSGAEVKKPGASVKVSCKASGYTFITYWIEWVRQRPGQGLEWMGDILPGSGSTNYNENFKGRVTFTADTSTSTVYMQLSSLRSEDTAVYYCARSGYYGNSGFAYWGQGTLVTVSS
VL: B5 VL with E62S, T103S
notes: H1+L4; Full-length IgG
As for B6, in assay [3], a half-maximal response (EC50) required 2.35 nM.

B7: hu10H10-36 (antibody, V domains shown)
VH: B5 VH with T31E
VL: B5 VL
notes: H10+L3; Full-length IgG
For the molecule B7, the EC50 came out at 2.14 nM in assay [3] and 0.96 nM in assay [4].

B8: hu10H10-40 (antibody, V domains shown)
VH: B5 VH with K38R, S57W, T69V
VL: B5 VL
notes: H14+L3 (printed bu10H10-40); Full-length IgG; also called bu10H10-40
Consider B8, for which the EC50 in assay [3] is 1.07 nM; in assay [4] it was 0.55 nM.

B9: hu10H10-37 (antibody, V domains shown)
VH: B5 VH with G54Y
VL: B5 VL
notes: H11+L3; Full-length IgG
For the molecule B9, the figures for the concentration for a half-maximal effect (EC50) in assay [3] and in assay [4] were 1.07 nM and 0.35 nM, respectively.

B10: hu10H10-35 (antibody, V domains shown)
VH: B5 VH with I30R
VL: B5 VL
notes: H9+L3; Full-length IgG
B10: the EC50 in assay [3] worked out at 1.09 nM; in assay [4], 0.79 nM.

B11: hu10H10-38 (antibody, V domains shown)
VH: B5 VH with S55H
VL: B5 VL
notes: H12+L3; Full-length IgG
B11: the figures for the concentration giving a half-maximal response (EC50) in assay [3] and in assay [4] were 1.14 nM and 0.81 nM, respectively.

B12: hu10H10-34 (antibody, V domains shown)
VH: B5 VH with Y27R, K38R
VL: B5 VL
notes: H8+L3; Full-length IgG
Regarding B12, the EC50 in assay [3] worked out at 1.12 nM; in assay [4] it was 0.99 nM.

B13: hu10H10-39 (antibody, V domains shown)
VH: B5 VH with S57W
VL: B5 VL
notes: H13+L3 (printed bu10H10-39); Full-length IgG; also called bu10H10-39
As for B13, the EC50 in assay [3] came to 1.1 nM; in assay [4], 0.42 nM.

B14: hu10H10-1 (antibody, V domains shown)
VH: B6 VH
VL: B5 VL with E62S
notes: H1+L1; Full-length IgG
Molecule B14 returned an EC50 in assay [3] of 2.05 nM.

B15: hu310-10 (antibody, human IgG1, kappa, V domains shown)
VH: EVQLVQSGAEVKKPGASVKVSCKASGYSFTGYYMNWVRQAPGQGLEWMGEINPSTGGSTYNQKFKARVTLTVDQSTNTAYMELSSLRSEDTAVYYCARRELGGPFGYWGQGTTVTVSS
VL: SIVMTQSPDSLAVSLGERATINCKASQSVSNGIAWYQQKPGQSPKLLIYFASNRYTGVPDRFSGSGYGTDFTLTISSLQAEDVAVYYCQQDYSSPWTFGGGTKVEIKR
B15 gave an EC50 in assay [3] of 1.33 nM.

B16: hu310-5 (antibody, human IgG1, kappa, V domains shown)
VH: B15 VH with L70M, N77S, A79V
VL: SIQMTQSPSSLSASVGDRVTITCKASQSVSNGIAWYQQKPGKSPKLLIYFASNRYTGVPSRFSGSGYGTDFTFTISSLQPEDIATYYCQQDYSSPWTFGGGTKVEIKR
Consider B16, for which a half-maximal response in assay [3] (EC50) required 1.55 nM.

B17: hu310-13 (antibody, human IgG1, kappa, V domains shown)
VH: B15 VH
VL: B16 VL
In the case of B17, the EC50 in assay [3] was 1.39 nM.

B18: hu310-15 (antibody, human IgG1, kappa, V domains shown)
VH: B15 VH
VL: B16 VL with N31S
In assay [3], B18 gave an EC50 of 1.98 nM.

B19: hu310-6 (antibody, human IgG1, kappa, V domains shown)
VH: B15 VH with L70M, N77S, A79V
VL: B16 VL with N31Q
In assay [3], B19 returned an EC50 of 2.56 nM.

B20: hu310-3 (antibody, human IgG1, kappa, V domains shown)
VH: B15 VH with L70M, N77S, A79V
VL: B15 VL with D9K, S10F, L73F
Regarding B20, in assay [3], the midpoint of the response, the EC50, lay at 1.83 nM.

B21: hu310-4 (antibody, human IgG1, kappa, V domains shown)
VH: B15 VH with L70M, N77S, A79V
VL: B16 VL with S1D, S43A, Y67S
In assay [3], B21 yielded an EC50 of 2.11 nM.

B22: hu310-9 (antibody, human IgG1, kappa, V domains shown)
VH: B15 VH
VL: B15 VL with S1D, S43P, Y67S
Molecule B22 displayed an EC50 in assay [3] of 1.97 nM.

B23: hu310-8 (antibody, human IgG1, kappa, V domains shown)
VH: B15 VH with L70M, N77S, A79V
VL: B16 VL with N31T
Take B23: the EC50 in assay [3] stood at 1.73 nM.

B24: hu310-11 (antibody, human IgG1, kappa, V domains shown)
VH: B15 VH
VL: B15 VL with D9K, S10F, L73F
As for B24, a half-maximal response in assay [3] (EC50) required 1.76 nM.

B25: hu310-12 (antibody, human IgG1, kappa, V domains shown)
VH: B15 VH
VL: B16 VL with S1D, S43A, Y67S
B25 showed an EC50 in assay [3] of 1.95 nM.

B26: hu310-16 (antibody, human IgG1, kappa, V domains shown)
VH: B15 VH
VL: B16 VL with N31T
In the case of B26, the concentration giving a half-maximal response (EC50) in assay [3] amounted to 2.26 nM.

B27: hu310-7 (antibody, human IgG1, kappa, V domains shown)
VH: B15 VH with L70M, N77S, A79V
VL: B16 VL with N31S
On to B27, for which the concentration giving a half-maximal response (EC50) in assay [3] came out at 2.08 nM.

B28: hu310-14 (antibody, human IgG1, kappa, V domains shown)
VH: B15 VH
VL: B16 VL with N31Q
Turning to B28, the EC50 in assay [3] was 1.76 nM.

B29: chimeric antibody CH310 (antibody, human IgG1, kappa, V domains shown)
VH: EVQLQQSGPELVKPGASLKISCKASGYSFTGYYMNWVKQSPEKSLEWIGEINPSTGGSTYNQKFKAKATLTVDQSSNTAYMQLKSLTSEDSAVYYCARRELGGPFGYWGQGTPVTVSA
VL: SIVMTQTPKFLLVSSGDRVTITCKASQSVSNGIAWYQQKPGQSPKLLIYFASNRYTGVPDRFTGSGYGTDFTFTISTVQAEDLAVYFCQQDYSSPWTFGGGTKLEIKR
notes: Murine 310# variable regions + human constant regions
In assay [1], B29 displayed a Kd of 23.2 nM, an off-rate (koff) of 0.00949 s⁻¹ and an on-rate (kon) of 409000 M⁻¹ s⁻¹. Moreover, in assay [2], binding was put at a Kd of 23.5 nM, the off-rate constant (koff) was 0.00767 s⁻¹ and the kon was 327000 M⁻¹ s⁻¹. This molecule yielded a 50% effective concentration (EC50) in assay [3] of 1.84 nM.

These data come from patent publication EP4703388A1 (Jiangsu Hengrui Pharmaceuticals Co., Ltd., dated 2024).
